The data set deals with kinases of Table 6 on Myelin Basic Protein (MBP). The data set is described as follows: Kinase assay using MBP substrate, ProQ Diamond stain (Table 6). It is filed as biochemical. The note with it: kinase printed on MBP-coated slide; 20 uM ATP, 30° C.; ProQ Diamond Microarray Stain; graded Strong/Weak/Negative. How it is done: In this illustrative example, four-well slides were designed with a hydrophobic mask surrounding 4-wells of aldehyde- or epoxy-coated glass (smooth or ES grade; Erie Scientific (Portsmouth, N.H.)). […] Bovine, dephosphorylated, Myelin Basic Protein (MBP) was purchased from Upstate Biotechnology (#13-110). MBP was diluted to 1 mg/ml in PBS, applied to the slide surface, covered with a coverslip, and left overnight at 4° C. to coat the slide with the MBP. Slides were washed 3 times with water and spun dry before printing.
Kinases were purchased from Panvera (Invitrogen, Carlsbad, Calif.), diluted in printing buffer (50 mM Tris pH 7.5, 25% glyercol, 0.05% TritonX-100, 2 mM DTT) and deposited using a GeneMachine OmniGrid100. Slides were stored at −20° C.
Reactions were performed following removal of the slide from the freezer. Reaction buffer (20 mM HEPES pH 7.5, 4 mM MgCl2, 2 mM DTT, 20 uM ATP, 5% DMSO) was added with or without inhibitor, a coverslip applied, and the slide placed at 30° C. for the appropriate reaction time. The slide was washed with water to stop the reaction (3 times) and spun dry. ProQ Diamond Microarray Stain (Invitrogen #P33706) was applied, covered with a coverslip, and the slide was incubated in the dark at room temperature for 30 minutes. The slide was destained and washed three times with water, and spun dry.

Experimental findings from patent publication US20090099029A1, “Methods and substrates for conducting assays” (Invitrogen Corporation, priority 2005, published 2009) are described below.

B1: CHEK1 (protein)
chain: MAVPFVEDWDLVQTLGEGAYGEVQLAVNRVTEEAVAVKIVDMKRAVDCPENIKKEICINKMLNHENVVKFYGHRREGNIQYLFLEYCSGGELFDRIEPDIGMPEPDAQRFFHQLMAGVVYLHGIGITHRDIKPENLLLDERDNLKISDFGLATVFRYNNRERLLNKMCGTLPYVAPELLKRREFHAEPVDVWSCGIVLTAMLAGELPWDQPSDSCQEYSDWKEKKTYLNPWKKIDSAPLALLHKILVENPSARITIPDIKKDRWYNKPLKKGAKRPRVTSGGVSESPSGFSKHIQSNLDFSPVNSASSEENVKYSSSQPEPRTGLSLWDTSPSYIDKLVQGISFSQPTCPDHMLLNSQLLGTPGSSQNPWQRLVKRMTRFFTKLDADKSYQCLKETCEKLGYQWKKSCMNQVTISTTDRRNNKLIFKVNLLEMDDKILVDFRLSKGDGLEFKRHFLKIKGKLIDIVSSQKIWLPAT
modifications: left off: small tags and cut ends
Regarding B1, the “MBP Kinase Activity” value is reported as “Strong”.

B2: CSNK1D(CK1delta) (protein)
chain: MELRVGNRYRLGRKIGSGSFGDIYLGTDIAAGEEVAIKLECVKTKHPQLHIESKIYKMMQGGVGIPTIRWCGAEGDYNVMVMELLGPSLEDLFNFCSRKFSLKTVLLLADQMISRIEYIHSKNFIHRDVKPDNFLMGLGKKGNLVYIIDFGLAKKYRDARTHQHIPYRENKNLTGTARYASINTHLGIEQSRRDDLESLGYVLMYFNLGSLPWQGLKAATKRQKYERISEKKMSTPIEVLCKGYPSEFATYLNFCRSLRFDDKPDYSYLRQLFRNLFHRQGFSYDYVFDWNMLKFGASRAADDAERERRDREERLRHSRNPATRGLPSTASGRLRGTQEVAPPTPLTPTSHTANTSPRPVSGMERERKVSMRLHRGAPVNISSSDLTGRQDTSRMSTSQNSIPFEHHGK
modifications: left off: a dimerising Fc or GST
Consider B2, for which the “MBP Kinase Activity” value is reported as “Negative”.

B3: GRK4 (protein)
chain: MELENIVANSLLLKARQGGYGKKSGRSKKWKEILTLPPVSQCSELRHSIEKDYSSLCDKQPIGRRLFRQFCDTKPTLKRHIEFLDAVAEYEVADDEDRSDCGLSILDRFFNDKLAAPLPEIPPDVVTECRLGLKEENPSKKAFEECTRVAHNYLRGEPFEEYQESSYFSQFLQWKWLERQPVTKNTFRHYRVLGKGGFGEVCACQVRATGKMYACKKLQKKRIKKRKGEAMALNEKRILEKVQSRFVVSLAYAYETKDALCLVLTIMNGGDLKFHIYNLGNPGFDEQRAVFYAAELCCGLEDLQRERIVYRDLKPENILLDDRGHIRISDLGLATEIPEGQRVRGRVGTVGYMAPEVVNNEKYTFSPDWWGLGCLIYEMIQGHSPFKKYKEKVKWEEVDQRIKNDTEEYSEKFSEDAKSICRMLLTKNPSKRLGCRGEGAAGVKQHPVFKDINFRRLEANMLEPPFCPDPHAVYCKDVLDIEQFSVVKGIYLDTADEDFYARFATGCVSIPWQNEMIESGCFKDINKSESEEALPLDLDKNIHTPVSRPNRGFFYRLFRRGGCLTMVPSEKEVEPKQC
modifications: left off: a dimerising Fc or GST
Regarding B3, the “MBP Kinase Activity” value is “Negative”.

B4: DAPK3(ZIPK) (protein)
chain: MSTFRQEDVEDHYEMGEELGSGQFAIVRKCRQKGTGKEYAAKFIKKRRLSSSRRGVSREEIEREVNILREIRHPNIITLHDIFENKTDVVLILELVSGGELFDFLAEKESLTEDEATQFLKQILDGVHYLHSKRIAHFDLKPENIMLLDKNVPNPRIKLIDFGIAHKIEAGNEFKNIFGTPEFVAPEIVNYEPLGLEADMWSIGVITYILLSGASPFLGETKQETLTNISAVNYDFDEEYFSNTSELAKDFIRRLLVKDPKRRMTIAQSLEHSWIKAIRRRNVRGEDSGRKPERRRLKTTRLKEYTIKSHSSLPPNNSYADFERFSKVLEEAAAAEEGLRELQRSRRLCHEDVEALAAIYEEKEAWYREESDSLGQDLRRLRQELLKTEALKRQAQEEAKGALLGTSGLKRRFSRLENRYEALAKQVASEMRFVQDLVRALEQEKLQGVECGLR
modifications: left off: a dimerising Fc or GST
As to B4, the “MBP Kinase Activity” value is reported as “Negative”.

B5: EPHA2 (protein)
chain: HRRRKNQRARQSPEDVYFSKSEQLKPLKTYVDPHTYEDPNQAVLKFTTEIHPSCVTRQKVIGAGEFGEVYKGMLKTSSGKKEVPVAIKTLKAGYTEKQRVDFLGEAGIMGQFSHHNIIRLEGVISKYKPMMIITEYMENGALDKFLREKDGEFSVLQLVGMLRGIAAGMKYLANMNYVHRDLAARNILVNSNLVCKVSDFGLSRVLEDDPEATYTTSGGKIPIRWTAPEAISYRKFTSASDVWSFGIVMWEVMTYGERPYWELSNHEVMKAINDGFRLPTPMDCPSAIYQLMMQCWQQERARRPKFADIVSILDKLIRAPDSLKTLADFDPRVSIRLPSTSGSEGVPFRTVSEWLESIKMQQYTEHFMAAGYTAIEKVVQMTNDDIKRIGVRLPGHQKRIAYSLLGLKDQVNTVGIPI
modifications: left off: a dimerising Fc or GST
Consider B5, for which the “MBP Kinase Activity” value is reported as “Weak”.

B6: DAPK2 (protein)
chain: MFQASMRSPNMEPFKQQKVEDFYDIGEELGSGQFAIVKKCREKSTGLEYAAKFIKKRQSRASRRGVSREEIEREVSILRQVLHHNVITLHDVYENRTDVVLILELVSGGELFDFLAQKESLSEEEATSFIKQILDGVNYLHTKKIAHFDLKPENIMLLDKNIPIPHIKLIDFGLAHEIEDGVEFKNIFGTPEFVAPEIVNYEPLGLEADMWSIGVITYILLSGASPFLGDTKQETLANITAVSYDFDEEFFSQTSELAKDFIRKLLVKETRKRLTIQEALRHPWITPVDNQQAMVRRESVVNLENFRKQYVRRRWKLSFSIVSLCNHLTRSLMKKVHLRPDEDLRNCESDTEEDIARRKALHPRRRSSTS
modifications: left off: a dimerising Fc or GST
B6: the “MBP Kinase Activity” value is on record as “Negative”.

B7: CSNK2A2 (protein)
chain: MPGPAAGSRARVYAEVNSLRSREYWDYEAHVPSWGNQDDYQLVRKLGRGKYSEVFEAINITNNERVVVKILKPVKKKKIKREVKILENLRGGTNIIKLIDTVKDPVSKTPALVFEYINNTDFKQLYQILTDFDIRFYMYELLKALDYCHSKGIMHRDVKPHNVMIDHQQKKLRLIDWGLAEFYHPAQEYNVRVASRYFKGPELLVDYQMYDYSLDMWSLGCMLASMIFRREPFFHGQDNYDQLVRIAKVLGTEELYGYLKKYHIDLDPHFNDILGQHSRKRWENFIHSENRHLVSPEALDLLDKLLRYDHQQRLTAKEAMEHPYFYPVVKEQSQPCADNAVLSSGLTAAR
modifications: left off: a dimerising Fc or GST
Regarding B7, the “MBP Kinase Activity” value is “Negative”.

B8: DMPK (protein)
chain: MSAEVRLRRLQQLVLDPGFLGLEPLLDLLLGVHQELGASELAQDKYVADFLQWAEPIVVRLKEVRLQRDDFEILKVIGRGAFSEVAVVKMKQTGQVYAMKIMNKWDMLKRGEVSCFREERDVLVNGDRRWITQLHFAFQDENYLYLVMEYYVGGDLLTLLSKFGERIPAEMARFYLAEIVMAIDSVHRLGYVHRDIKPDNILLDRCGHIRLADFGSCLKLRADGTVRSLVAVGTPDYLSPEILQAVGGGPGTGSYGPECDWWALGVFAYEMFYGQTPFYADSTAETYGKIVHYKEHLSLPLVDEGVPEEARDFIQRLLCPPETRLGRGGAGDFRTHPFFFGLDWDGLRDSVPPFTPDFEGATDTCNFDLVEDGLTAMVSGGGETLSDIREGAPLGVHLPFVGYSYSCMALRDSEVPGPTPMELEAEQLLEPHVQAPSLEPSVSPQDETAEVAVPAAVPAAEAEAEVTLRELQEALEEEVLTRQSLSREMEAIRTDNQNFASQLREAEARNRDLEAHVRQLQERMELLQAEGATAVTGVPSPRATDPPSHLDGPPAVAVGQCPLVGPGPMHRRHLLLPARVPRPGLSEALSLLLFAVVLSRAAALGCIGLVAHAGQLTAVWRRPGAARAP
modifications: left off: a dimerising Fc or GST
Regarding B8, the “MBP Kinase Activity” value is recorded as “Negative”.

B9: EPHA1 (protein)
chain: RSRRAQRQRQQRQRDRATDVDREDKLWLKPYVDLQAYEDPAQGALDFTRELDPAWLMVDTVIGEGEFGEVYRGTLRLPSQDCKTVAIKTLKDTSPGGQWWNFLREATIMGQFSHPHILHLEGVVTKRKPIMIITEFMENGALDAFLREREDQLVPGQLVAMLQGIASGMNYLSNHNYVHRDLAARNILVNQNLCCKVSDFGLTRLLDDFDGTYETQGGKIPIRWTAPEAIAHRIFTTASDVWSFGIVMWEVLSFGDKPYGEMSNQEVMKSIEDGYRLPPPVDCPAPLYELMKNCWAYDRARRPHFQKLQAHLEQLLANPHSLRTIANFDPRMTLRLPSLSGSDGIPYRTVSEWLESIRMKRYILHFHSAGLDTMECVLELTAEDLTQMGITLPGHQKRILCSIQGFKD
modifications: left off: a dimerising Fc or GST
For B9, the “MBP Kinase Activity” value is “Strong”.

B10: DYRK3 (protein)
chain: MGGTARGPGRKDAGPPGAGLPPQQRRLGDGVYDTFMMIDETKCPPCSNVLCNPSEPPPPRRLNMTTEQFTGDHTQHFLDGGEMKVEQLFQEFGNRKSNTIQSDGISDSEKCSPTVSQGKSSDCLNTVKSNSSSKAPKVVPLTPEQALKQYKHHLTAYEKLEIINYPEIYFVGPNAKKRHGVIGGPNNGGYDDADGAYIHVPRDHLAYRYEVLKIIGKGSFGQVARVYDHKLRQYVALKMVRNEKRFHRQAAEEIRILEHLKKQDKTGSMNVIHMLESFTFRNHVCMAFELLSIDLYELIKKNKFQGFSVQLVRKFAQSILQSLDALHKNKIIHCDLKPENILLKHHGRSSTKVIDFGSSCFEYQKLYTYIQSRFYRAPEIILGSRYSTPIDIWSFGCILAELLTGQPLFPGEDEGDQLACMMELLGMPPPKLLEQSKRAKYFINSKGIPRYCSVTTQADGRVVLVGGRSRRGKKRGPPGSKDWGTALKGCDDYLFIEFLKRCLHWDPSARLTPAQALRHPWISKSVPRPLTTIDKVSGKRVVNPASAFQGLGSKLPPVVGIANKLKANLMSETNGSIPLCSVLPKLIS
modifications: left off: a dimerising Fc or GST
With B10, the “MBP Kinase Activity” value is “Negative”.
